Data published in article PMC10350818 (The EMBO Journal, 2023).

What was measured:
Assay in all cases: pull-down; GST pull-down with purified GST or GST-p37 as bait, p97 variants and SPI or SPI variant, in the presence of ATP; Western blot
Settings in all cases: both partners purified
[1] = biological target: T1, His-tagged p97 (from bacteria), wild type (human, UniProt P55072 2-806)
T1 construct: p97 (VCP), human; Wild-type p97 of the GST pull-down assays; also called VCP; source: generated in bacteria, purified
T1 sequence (P55072 2-806): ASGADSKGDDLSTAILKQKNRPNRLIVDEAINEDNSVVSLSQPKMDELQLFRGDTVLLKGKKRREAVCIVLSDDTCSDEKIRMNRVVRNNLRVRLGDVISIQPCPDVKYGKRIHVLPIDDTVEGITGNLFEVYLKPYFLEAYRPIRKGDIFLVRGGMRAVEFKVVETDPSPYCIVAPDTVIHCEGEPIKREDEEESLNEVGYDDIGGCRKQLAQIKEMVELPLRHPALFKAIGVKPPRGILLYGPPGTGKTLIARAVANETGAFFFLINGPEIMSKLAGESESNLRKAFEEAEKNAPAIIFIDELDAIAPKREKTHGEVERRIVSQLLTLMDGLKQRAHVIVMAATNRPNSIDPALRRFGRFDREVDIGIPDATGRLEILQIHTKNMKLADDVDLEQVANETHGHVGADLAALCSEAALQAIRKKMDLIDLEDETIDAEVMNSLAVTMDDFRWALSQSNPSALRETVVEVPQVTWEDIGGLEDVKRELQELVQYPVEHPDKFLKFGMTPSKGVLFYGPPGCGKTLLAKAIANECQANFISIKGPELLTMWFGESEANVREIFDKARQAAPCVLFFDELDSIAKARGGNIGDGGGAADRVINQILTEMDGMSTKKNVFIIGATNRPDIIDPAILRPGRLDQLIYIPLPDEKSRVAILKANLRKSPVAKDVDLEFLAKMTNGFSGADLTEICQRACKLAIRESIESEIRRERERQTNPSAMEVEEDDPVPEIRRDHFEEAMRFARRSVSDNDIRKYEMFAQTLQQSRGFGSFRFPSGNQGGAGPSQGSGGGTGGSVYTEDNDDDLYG

His-tagged p97 G54K = biological target: T2, His-tagged p97 G54K (human, UniProt P55072 2-806, G54K)
T2 construct: p97 (VCP), human, point mutation in the N-domain groove; source: generated in bacteria, purified
T2 sequence (P55072 2-806 G54K): as the sequence (P55072 2-806) above, with G53K counted along it

His-tagged p97 Y143A = biological target: T3, His-tagged p97 Y143A (human, UniProt P55072 2-806, Y143A)
T3 construct: p97 (VCP), human, point mutation in the N-domain groove; source: generated in bacteria, purified
T3 sequence (P55072 2-806 Y143A): as the sequence (P55072 2-806) above, with Y142A counted along it

Measured: binding result

B1: GST-p37 (natural protein, human, UniProt Q14CS0 1-331, looked up)
chain: MAEGGGPEPGEQERRSSGPRPPSARDLQLALAELYEDEVKCKSSKSNRPKATVFKSPRTPPQRFYSSEHEYSGLNIVRPSTGKIVNELFKEAREHGAVPLNEATRASGDDKSKSFTGGGYRLGSSFCKRSEYIYGENQLQDVQILLKLWSNGFSLDDGELRPYNEPTNAQFLESVKRGEIPLELQRLVHGGQVNLDMEDHQDQEYIKPRLRFKAFSGEGQKLGSLTPEIVSTPSSPEEEDKSILNAVVLIDDSVPTTKIQIRLADGSRLIQRFNSTHRILDVRNFIVQSRPEFAALDFILVTSFPNKELTDESLTLLEADILNTVLLQQLK
notes: Bait of the GST pull-down assays; source: generated in bacteria, purified
binds: all assays above
